Experimental data published in the DeepSol protein solubility set.

Experiment: soluble on expression in E. coli; label from the status in PepcDB or PDB records

Sequence	soluble on expression in E. coli
MNVEQQYIDLFSQTEAMICKHSAEVLNAPRAAAFADFERLGFPTRKMEKYKYTDISKYFEPDYGLNLNRLQIPVNPYEVFKCDVPNMSTALYFVVNDAFYNKALPKTHLPEGVIFGSLKEVAAEHPELVKKYYGKLADTSKDGITAFNTAFAQDGVIFYVPKNVIVEKPIQLVNILRADVNFMVNRRVLIILEDGAQARLLICDHAMDNVNFLATQVIEVFAGENAVFDMYELEETHTSTVRISNLYVKQEANSNVLLNGMTLHNGTTRNTTEVLLAGEGAEINLCGMAIADKNQHVDNNTSIDHAVPNCTSNELFKYVLDDQSTGAFAGLVLVRPDAQHTNSQQTNRNLCATRDARMYTQPQLEIYADDVKCSHGATVGQLDENALFYMRARGIAEKEARLLLMFAFVNEVIDTIRLDALKDRLHLLVEKRFRGELNKCQGCAICK	not soluble
MNVERWAQALKEEYPRGLLGEREALVSLLVGKGLSHAEAVEVARALEAQGYAHFLPGERPRWFFSSRSLDLKALMRALDQEFPEFVGEGDEEEEALAFLAARLGDREVAREVLEAMRAAGYVERAYSPELARDRLFFRFPEALRLLG	soluble
MNVIYPLAVPKGRRLCCEVCEAPAERVCAACTVTYYCGVVHQKADWDSIHEKICQLLIPLRTSMPFYNSEEERQHGLQQLQQRQKYLIEFCYTIAQKYLFEGKHEDAVPAALQSLRFRVKLYGLSSVELVPAYLLLAEASLGLGRIVQAEEYLFQAQWTVLKSTDCSNATHSLLHRNLGLLYIAKKNYEEARYHLANDIYFASCAFGTEDIRTSGGYFHLANIFYDLKKLDLADTLYTKVSEIWHAYLNNHYQVLSQAHIQQMDLLGKLFENDTGLDEAQEAEAIRILTSILNIRESTSDKAPQKTIFVLKILVMLYYLMMNSSKAQEYGMRALSLAKEQQLDVHEQSTIQELLSLISTEDHPIT	soluble
MNVLRPTLLTLACLLASPGFADDLPSLGDASSAIVSPQQEYQLGRAWLALLRSQVSQLNDPQLKDYVETSVYKLVETSQVNDRRLEFILINSPQLNAFAAPGGIIGVNGGLFLNAQTEGEYASVLAHELAHLSQRHFARGVEAQQRMQVPMMAALLAGIVIAAAGAGDAGIATIAGTQAAAIQEQRRFSRQNEQEADRIGILNLEKAGYDPRSMPTMFERLMRQYRFDAKPPEFLLTHPVTESRIADTRNRAEQARQGGTEDSLRYQLIRARVQLTYEESPGLAAKRFRAQLDENPKNDIARYGLAIAQIKGSQWNEARENLKPLLAKSPNDVTYNLAQIELDMANSRLPDAQTRVERMLNLYPGNYPLNQIRVDLLLKQNRPADAEKALEGLLKSRPDDPDVWYLVAETRGLSGNIIGLHQARAEYFALVGDYRQAIQQLDFAKRRAGSNFPLSSRIDARQREMMDQEQMVKDMMRLEHHHHHH	soluble
MNVSEALKGALPNFIPGLGTLYVDPSTLPEGPFLAYDRAGNLVKVVFMVPLKKLNESHKYVDIGTKTLRALGITRIDHVNLIPSGPHPGVSEPHYHIELVLVSVDQERKVLEGEPY	soluble
MNVSVNIKNVTKEYRIYRTNKERMKDALIPKHKNKTFFALDDISLKAYEGDVIGLVGINGSGKSTLSNIIGGSLSPTVGKVDRNGEVSVIAISAGLSGQLTGIENIEFKMLCMGFKRKEIKAMTPKIIEFSELGEFIYQPVKKYSSGMRAKLGFSINITVNPDILVIDEALSVGDQTFAQKCLDKIYEFKEQNKTIFFVSHNLGQVRQFCTKIAWIEGGKLKDYGELDDVLPKYEAFLNDFKKKSKAEQKEFRNKLDESRFVIK	not soluble
MNWEQKSSMLKKKIERIKEIETTLWGNLEKCELCPRKCGVDRYRTTGICGLPARAKISNAVLHFGEEPPISGKTGAGTVFFSGCNMKCVYCQNMGFSQKGIGTEVEVEDLAEIFLILQKHGAKTLNLVTPTPHLPFIISALRIAIENGLNLPIVYNTSGYEDPEILRLLEGVVDIYLSDVRYSDNEASKKYSKTPDYWTVVQKAIVEMFRQVGIFDEEKMKGLIVRILVLPGNVVDYSEIFSFLSSLSTRIPLSIMNQYIPHFDAQKFPEISRKLNQNEYEKILELAERYGFTEGWYQSEEKERVTTRGLKEISEKLQFLRLKTHNSY	not soluble
MPAKPQLISPAGDWTSMRAALDAGADAVYFGAEGFNMRAASKGFSPGDFGGIARLCRSHGAKAYLALNSVIYDAELDEVDRTAAAAKAAGLDAVICWDLAVIEACRRHEMPIHLSTQASVSNINALRFYASLGARMIVLARELTLEQTAAITKCIAAEKLPVTVESFVHGAMCVAISGRCFLSQELFGRSANRGECVQPCRRSYRIADVEEGFELELGSNYVMSPKDLCALPFLDKLFDAGIGAFKIEGRNRSPEYVATTTAAYRKAIDFIAAHRNDKDFDEAYRSLTDRLQNDLVRVYNRGFSEGFFFGKPADAWTKHSGSAATETKSYVGVVRKYFPKAGVAEILVHAPSVDSGVRLSIQGPATGLVTVPDAELHLDGQLANRIEQGQIFTVRCDRVRKNDKVYVLLKN	not soluble
MPANIDGTLIKDPMVLNIMLFGSDERPGETGYGRSDTMMLLSIDNRNKKLKLTSFMRDTYVNVPEWGDTKLTHAYSYGGPALAIETIERNFGIDIDRYAVVYFDTFPGIVDTLGGIEVEMTQTEADVMNESVGPEFANFTEGKNTLNGATALVYVRIRYGVGDDFGRTQRQRDFMLQVLNKVKGTRDVGTLLTLLTKILPGVTTNISVNEMAGLAGGAISSYMDYPMYQFRLPEDGAFSAVDVDAGNVLAIDDWDAAREHLQRFIYEDTVDPIYGPLEHHHHHH	soluble
MPAPLKQLSWSVGCREIGRNCAISFIDALVNSLLAFRIAKRHTKLASECTWSQGRIDFMSENLNHTERQDRAITAPEFDALGRAPFISSLVKTLVHTDYDTSTGEVRSRRATGFVVGLTGEWGLGKSSVLNLLEHDLKQMEHVAVATLNPWLFKGRDEVVEAYFNALREALGFSSSEKARKLLVHLARYKASIEFVGATTAVVIDFVVGTGSATAIWKKWVLKVVRFLSKSRGLSANEERKNLEAKLAEAKIAIVMLIDELDRVEDEEVRVVAQLVKAVGDIKGISYLVAYDPSRVAQALGKGSTPEEKQKAGESYLEKIIQFPIPLRPLFMDEARDLLLQAMRNNDVTMPAESQSYQTEILNQLLRVIRTPREIKRLIGAFAVLEEIVRGEICPFDVLAYSWLVTKAPSLRERIADNIGQLVDDPSGEEMLARQRQRALATDKERTLTDILGSSAVSHLDILQLLFTRFNARREGSAEFFNGYRLALRRNLIRLLYLGNPPGDFSRRDIEVLWSLTNVDELEAELRRVKETDRLGPLLDRVGDFSASFPEAGDGIFWLALGRALVRENDWIRREEVERSLVDDACATLWRIARDGSEGSRRLRHIVHVLIEGGDLLIVPWLLRKHLFAHGLTNHGDRGRGDCIFEKDETIALRDKELPRYHDAVADGTALKKLPDTELIFCVLNSNYWDSKLKEDFTLQLDSIEAIVSFAALIMPPGIICDKSTLDLMLETDTVLKKANALLRQSGMPESDWLASAVRRLRTVLAGRDIHSADTLRDDFDQEELEHHHHHH	not soluble
MPAQIEDYALLGNCRSAALVSRDGALDWLCLPRFDAPAVFAALLGNEENGRWRLAPCDPVTHSSRQYLGDTLVLETTWVTASGRARVLDFMPLGEVNSVVRIVEGLSGETHFEMDLVMRFDYGLEHHHHHH	not soluble
MPDELKPHFANVQAHYDLSDDFFRLFLDPTQTYSCAYFERDDMTLQEAQIAKIDLALGKLGLQPGMTLLDVGCGWGATMMRAVEKYDVNVVGLTLSKNQANHVQQLVANSENLRSKRVLLAGWEQFDEPVDRIVSIGAFEHFGHERYDAFFSLAHRLLPADGVMLLHTITGLHPKEIHERGLPMSFTFARFLKFIVTEIFPGGRLPSIPMVQECASANGFTVTRVQSLQPHYAKTLDLWSAALQANKGQAIALQSEEVYERYMKYLTGCAEMFRIGYIDVNQFTCQK	soluble
MPDKKTLWMLNELEGFEKPKIKLEQYATSSELAVSMMEMIDETIGFEGKKLIDIGCGCGMLMTTAATMYELETVLGVDIDDEALKICSRNLETAEVQDRCELLQADILDPESDLPRGTFDVAVINPPFGTKNNAGIDMQFVQIGLQMVRPGGSVFSLHKSSTRDYILKNAKKWDGVGAECCAEMRWQLPATYKFHKQKAVDIAVDLIHFKKLDS	soluble
MPDMANVESFDLDHTKVKAPYVRLAGVKTTPKGDQISKYDLRFLQPNQGAIDPAAIHTLEHLLAGYMRDHLEGVVDVSPMGCRTGMYMAVIGEPDEQGVMKAFEAALKDTAGHDQPIPGVSELECGNYRDHDLAAARQHARDVLDQGLKVQETILLERGSHHHHHH	soluble
MPEGILPIERDLLRFKEIVRGEVKKRVREFLTREELFGQVEGRLVSIPLPQLEIPKIVHGEPLGEGLGLGGPGEEALGPGGHIPVAELELEEFLDLVGEALRLPRLRPKGEGEVTEEALRHTTIARKGPRGLRHVRRTLKESLKRALQSGEYRPEDPLLVPEREDLRYKAPRRKPIPHAQAVVLFALDVSGSMREEELKLVKTLSFWITLWIKRHFPRLERRYLLHDAEAWEVPEEEFFKAREGGGTRISSALLLAEEILKAYPEAFYNRYLFHFSDGENWQGDTPLALEALRRLLPSLALYGYAQVESPYGQGHFLEEVQEALGGREGVALAAVRGREDLPVALKRLLGG	soluble
MPELEVKGKKLRLDEDGFLQDWEEWDEEVAEALAKDTRFSPQPIELTEEHWKIIRYLRDYFIKYGVAPPVRMLVKHCKKEVRPDCNLQYIYKLFPQGPAKDACRIAGLPKPTGCV	soluble
MPERLQVYKCEVCGNIVEVLNGGIGELVCCNQDMKLMSENTVDAAKEKHVPVIEKIDGGYKVKVGAVAHPMEEKHYIQWIELLADDKCYTQFLKPGQAPEAVFLIEAAKVVAREYCNIHGHWKAEN	soluble
MPFIDIQSKVGINIDKWLLLQSSKQPYRWTTSCHAFEKEWVECSHGIGQIRAQKECKLEYEDFYECMHRNKLRQRLQAIQEQKKKLEKEGVYKAPDFTKDSNTP	not soluble
MPFRNAVQTASPPTTPKQKAHHDRIHVHPFGLGTHLCQRPLPHDQTVRRGRTQAQTFRTPHDRAGGRFRADRRSCLHPRIPCRIGTRSGLGVLCHSRLPVPDFCVSMFCVAVFLAHAQQGIDKHRNAV	not soluble
MPFVVIITGIPGVGKSTITKLALQRTRAKFKLINFGDLMFEEALKLKLVKHRDEMRKLPLEVQRELQMNAAKKIAEMAKNYPILLDTHATIKTPHGYLLGLPYEVIKILNPNFIVIIEATPSEILGRRLRDLKRDRDVETEEQIQRHQDLNRAAAITYAMHSNALIKIIENHEDKGLEEAVNELVKILDLAVKEYA	soluble
MPGFDYKFLEKPKRRLLCPLCGKPMREPVQVSTCGHRFCDTCLQEFLSEGVFKCPEDQLPLDYAKIYPDPELEVQVLGLPIRCIHSEEGCRWSGPLRHLQGHLNTCSFNVIPCPNRCPMKLSRRDLPAHLQHDCPKRRLKCEFCGCDFSGEAYESHEGMCPQESVYCENKCGARMMRRLLAQHATSECPKRTQPCTYCTKEFVFDTIQSHQYQCPRLPVACPNQCGVGTVAREDLPGHLKDSCNTALVLCPFKDSGCKHRCPKLAMARHVEESVKPHLAMMCALVSRQRQELQELRRELEELSVGSDGVLIWKIGSYGRRLQEAKAKPNLECFSPAFYTHKYGYKLQVSAFLNGNGSGEGTHLSLYIRVLPGAFDNLLEWPFARRVTFSLLDQSDPGLAKPQHVTETFHPDPNWKNFQKPGTWRGSLDESSLGFGYPKFISHQDIRKRNYVRDDAVFIRAAVELPRKILS	soluble
MPGFNYGGKGDGTGWSSERGSGPEPGGGSHGNSGGHDRGDSSNVGNESVTVMKPGDSYNTPWGKVIINAAGQPTMNGTVMTADNSSMVPYGRGFTRVLNSLVNNPVSLEHHHHHH	soluble
MPGHTSWDATFLEPAPPLPHPSECGQPCVSGQSQMFQHRTTNAQGPPPNRPMPRPPAGMPMMTSSHEHDYTNDYEDPEEMARSRGEGFSNHLLIKTTPPPQPHPNFNSYEMSMSQQRRSQQHQQPMAPPLSDCWGSGVHDSGVLHKNADGAYYIPSGSCKF	not soluble
